Substrate in the data set: NC(=O)C[C@H](N)C(=O)O
The experiment in a line: purified protein. To be noted: native unconjugated enzyme, 25 mM borate buffer, pH 8.5 (Table 4; Figure 5 legend says pH 7.5, Methods pH 9.3), 85 °C. In kind it is biochemical, Thermococcus sibiricus.

B1: TsA (L-asparaginase from Thermococcus sibiricus) (Thermococcus sibiricus MM 739) (protein)
chain: MKKLLIIGTGGTIASAKTEQGYKSVLKIDEILKLAKIKLENGYKIDSTNIMNIDSTLIHPEDWEIIAKEVFKALDDYDGIIITHGTDTLAYTASMLSFMIKNPNKPIVLTGSMLPITENGSDAPRNIRTAIKFAMEDVAGVFVAFMDKIMLGCRTSKVRTLGLNAFMSINYPDVAYVKGEKILYNIPKEKFQPNGSPELDTKYEPRVVVLRVTPGLGGEIIDAVLDAGYKGIVLEGYGAGGLPYRKSNLLSKIKEITPKIPVIMTTQALYDGVDMRKYEVGRKALETGIIPAKDMTKEATITKLMWALGHTKDVEKIREIMHTNYVNEIKS
notes: synthetic gene in pET-28a(+), E. coli BL21(DE3), SP-Sepharose purified (no tag mentioned); gene span 996 nt
Turning to B1, the Km was determined as 6.1 ± 1.3 mM and the Vmax stood at 470 µmol/min/mg.

As usually defined, the Km is the substrate concentration at which the rate is half of its maximum. In general, Vmax refers to the rate approached at saturating substrate.

The values above are taken from publication PMC11050321, “L-Asparaginase Conjugates from the Hyperthermophilic Archaea Thermococcus sibiricus with Improved Biocatalytic Properties” (International Journal of Molecular Sciences, 2024).
